Here are results for one molecule from paper PMC3875777, “Aberrantly hypermethylated Homeobox A2 derepresses metalloproteinase-9 through TBP and promotes invasion in Nasopharyngeal carcinoma”.

The target in data set [1] is recombinant His-TBP (UniProt P20226 1-339). The data set can be described thus: EMSA; supershifted by antibody; Pull-down: 100-250 pmole probe on M-280 streptavidin Dynabeads, 100-250 ug nuclear extract, 2.5 ug salmon sperm DNA, 1 h room temperature, washes with 0.5% NP-40; EMSA: LightShift kit, 20 fmol probe, 37 C 20 min, 6% gel in 1X TBE; salt and pH not given. Particulars: protein: recombinant; tags: His; label: 5'-biotin; blunt.

The target of data set [2] is recombinant His-HOXA2 (UniProt O43364 1-376). The data set is described as above. Particulars: protein: recombinant; tags: His; label: 5'-biotin; blunt.
recombinant His-HOXA2, sequence (O43364 whole entry): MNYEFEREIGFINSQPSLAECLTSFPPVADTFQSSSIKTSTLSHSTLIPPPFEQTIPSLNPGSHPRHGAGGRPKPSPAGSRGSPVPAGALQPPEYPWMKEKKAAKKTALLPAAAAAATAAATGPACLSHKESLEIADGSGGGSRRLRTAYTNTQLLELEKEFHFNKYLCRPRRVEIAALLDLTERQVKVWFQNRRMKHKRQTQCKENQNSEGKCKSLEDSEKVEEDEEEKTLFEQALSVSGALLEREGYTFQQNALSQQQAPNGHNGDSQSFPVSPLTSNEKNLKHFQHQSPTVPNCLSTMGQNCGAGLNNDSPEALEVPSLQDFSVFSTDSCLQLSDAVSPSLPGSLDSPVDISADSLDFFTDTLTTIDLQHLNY

recombinant His-TBP, sequence (P20226 whole entry): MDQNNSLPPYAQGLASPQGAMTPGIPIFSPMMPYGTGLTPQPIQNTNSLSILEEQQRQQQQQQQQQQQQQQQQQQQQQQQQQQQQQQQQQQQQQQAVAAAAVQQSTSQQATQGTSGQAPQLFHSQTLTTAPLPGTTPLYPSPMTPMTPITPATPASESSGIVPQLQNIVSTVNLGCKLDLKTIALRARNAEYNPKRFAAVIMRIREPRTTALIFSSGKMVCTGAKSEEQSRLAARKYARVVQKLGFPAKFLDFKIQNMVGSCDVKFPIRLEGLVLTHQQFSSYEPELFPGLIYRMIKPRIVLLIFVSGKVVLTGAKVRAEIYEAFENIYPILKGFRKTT

B1: MMP9 TATA WT (dsDNA)
DNA 1: GAGCGCCTCCTTAAAGCCCCCACAA
DNA 2: TTGTGGGGGCTTTAAGGAGGCGCTC
Take B1: the binding result in data set [1] and in data set [2] was “binds” in each case.
